We go through three molecules from paper PMC10374971, “In vivo and in vitro characterizations of melibiose permease (MelB) conformation-dependent nanobodies reveal sugar-binding mechanisms” (The Journal of Biological Chemistry, 2023).

The target of experiment [1] is MelBSt (Salmonella enterica serovar Typhimurium) (UniProt P30878). To be noted: cited from earlier work.
Experiment [2] deals with MelBSt/Nb733 complex, formed beforehand (MelBSt 50 μM with Nb733 75 μM, molar ratio 1:1.5) (Salmonella enterica serovar Typhimurium | Lama glama) (UniProt P30878). Put plainly: ITC; EIIA^Glc (450 μM) in the syringe, MelBSt (50 μM), free or complexed with Nb733 (75 μM), in the sample cell; 20 mM Tris-HCl pH 7.5, 100 mM NaCl, 0.01% DDM, 10% glycerol; 25 °C; one-site independent-binding model.

Experiment [3] deals with T1, Salmonella enterica serovar Typhimurium melibiose permease (MelBSt), wild type (Salmonella enterica serovar Typhimurium, UniProt P30878 6-476).
T1 construct: melibiose permease MelB of Salmonella enterica serovar Typhimurium, wild type; Membrane protein in detergent (0.01% DDM) in the ITC; also called WT MelBSt; source: E. coli DW2, plasmid pK95 ΔAH/MelBSt/CHis10
Described as above. To be noted: both partners purified.

T1 sequence (P30878 6-476): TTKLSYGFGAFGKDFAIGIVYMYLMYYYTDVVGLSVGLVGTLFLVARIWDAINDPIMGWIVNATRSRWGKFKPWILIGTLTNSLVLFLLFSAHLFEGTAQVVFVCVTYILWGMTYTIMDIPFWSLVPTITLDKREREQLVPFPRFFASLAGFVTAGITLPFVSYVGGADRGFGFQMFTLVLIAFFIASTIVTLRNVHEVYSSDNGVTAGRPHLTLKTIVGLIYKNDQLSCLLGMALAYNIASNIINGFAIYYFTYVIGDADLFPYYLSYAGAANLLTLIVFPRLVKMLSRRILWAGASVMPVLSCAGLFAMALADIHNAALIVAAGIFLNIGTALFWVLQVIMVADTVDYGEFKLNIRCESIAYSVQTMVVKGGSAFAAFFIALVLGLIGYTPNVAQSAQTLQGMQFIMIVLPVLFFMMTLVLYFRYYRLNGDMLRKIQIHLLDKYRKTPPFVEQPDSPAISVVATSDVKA
Chain of MelBSt/Nb733 complex, formed beforehand (MelBSt 50 μM with Nb733 75 μM, molar ratio 1:1.5) (Salmonella enterica serovar Typhimurium | Lama glama) (P30878 whole entry, looked up, one chain of several): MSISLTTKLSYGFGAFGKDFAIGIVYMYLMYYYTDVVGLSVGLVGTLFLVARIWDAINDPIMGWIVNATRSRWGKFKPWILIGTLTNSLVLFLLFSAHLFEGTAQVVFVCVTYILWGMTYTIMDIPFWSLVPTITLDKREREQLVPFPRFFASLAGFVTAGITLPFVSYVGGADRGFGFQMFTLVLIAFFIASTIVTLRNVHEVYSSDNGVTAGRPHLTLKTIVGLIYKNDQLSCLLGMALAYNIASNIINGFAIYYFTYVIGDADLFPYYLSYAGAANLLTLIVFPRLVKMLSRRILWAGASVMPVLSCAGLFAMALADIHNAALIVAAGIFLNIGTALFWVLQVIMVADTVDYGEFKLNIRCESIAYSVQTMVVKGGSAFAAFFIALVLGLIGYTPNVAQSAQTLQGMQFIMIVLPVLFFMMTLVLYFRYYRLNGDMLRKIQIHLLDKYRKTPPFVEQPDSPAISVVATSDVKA
Chain of MelBSt (Salmonella enterica serovar Typhimurium) (P30878 whole entry): as the sequence (P30878 whole entry, looked up, one chain of several) above

By Kd is commonly meant the concentration at which binding is half-saturated. With EIIAGlc (from UniProt P69783), in experiment [1], the Kd is 0.003 mM.

Broadly, the stoichiometry N is the number of molecules, sites or subunits per partner or assembly. Consider “EIIA^Glc of the glucose-specific phosphoenolpyruvate/sugar phosphotransferase system, unphosphorylated (from UniProt P69783 1-169) (natural protein)”, for which, in experiment [2], the Kd was found to be 8.12 mM, the dH was -6.75 kcal/mol and the stoichiometry N was 0.76.

B1: EIIA^Glc of the glucose-specific phosphoenolpyruvate/sugar phosphotransferase system, unphosphorylated (natural protein, UniProt P69783 1-169, looked up)
chain: MGLFDKLKSLVSDDKKDTGTIEIIAPLSGEIVNIEDVPDVVFAEKIVGDGIAIKPTGNKMVAPVDGTIGKIFETNHAFSIESDSGVELFVHFGIDTVELKGEGFKRIAEEGQRVKVGDTVIEFDLPLLEEKAKSTLTPVVISNMDEIKELIKLSGSVTVGETPVIRIKK
notes: regulatory enzyme EIIA^Glc of the glucose-specific phosphotransferase system, unphosphorylated; source: E. coli T7 Express, overexpressed, as described (24)
For B1, in experiment [3], the affinity, expressed as Kd, was 3.33 mM; the dH was -9.54 kcal/mol; the “stoichiometry N” value came to 0.81.
